Experimental data from patent US20260008852A1 (CRYSTAL BIOSCIENCE, published 2026).

What was measured:
[1] = molecular target: T1, His-tagged human B7-H3 (human, UniProt Q5ZPR3-2 29-245, limits assumed); assay: ELISA OD450 on hu B7-H3 over OD450 on mu B7-H3
T1 construct: Bought His-tagged protein coated on the ELISA plate; also called hu B7-H3; CD276
T1 sequence (looked up): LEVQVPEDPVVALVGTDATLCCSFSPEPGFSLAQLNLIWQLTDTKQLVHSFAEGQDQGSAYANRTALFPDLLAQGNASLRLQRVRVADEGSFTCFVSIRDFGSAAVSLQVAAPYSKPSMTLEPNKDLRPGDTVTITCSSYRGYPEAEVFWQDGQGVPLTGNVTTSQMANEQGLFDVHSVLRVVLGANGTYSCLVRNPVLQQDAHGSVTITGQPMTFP
Experimental: (§1) The variable regions of heavy and light chains were cloned and assembled into a single chain Fv-Fc (ScFv-Fc) mammalian expression vector. Sanger sequencing was performed by GeneWiz and sequences were evaluated using DNASTAR Lasergene 15. Unique scFv-Fes were transiently expressed in Expi293 cells (Life Technologies, #A14527) grown in Expi293 Expression Medium (Life Technologies, #A1435101) after transfection using the ExpiFectamine transfection reagent and supplements (Life Technologies, #A14524). Cells were incubated for 3-5 days with shaking at 37° C. in a 5% CO2 humidified incubator.

[2] = molecular target: T1, His-tagged human B7-H3; assay: ELISA, coated His-tagged antigen, scFv-Fc 1 ug/ml
Experimental: as §1

[3] = molecular target: T2, His-tagged mouse B7-H3 (mouse, UniProt Q8VE98 29-244, limits assumed); assay: ELISA, coated His-tagged antigen, scFv-Fc 1 ug/ml
T2 construct: Bought His-tagged protein coated on the ELISA plate; also called mu B7-H3; murine B7-H3
T2 sequence (looked up): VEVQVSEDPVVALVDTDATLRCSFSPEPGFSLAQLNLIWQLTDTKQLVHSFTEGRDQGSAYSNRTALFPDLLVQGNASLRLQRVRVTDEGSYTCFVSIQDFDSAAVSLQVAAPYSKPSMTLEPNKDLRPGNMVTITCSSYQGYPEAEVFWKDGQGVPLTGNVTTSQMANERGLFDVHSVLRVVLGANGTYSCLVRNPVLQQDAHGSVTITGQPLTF
Experimental: as §1

[4] = molecular target: T3, His-tagged cynomolgus monkey B7-H3 (cynomolgus monkey); assay: ELISA, coated His-tagged antigen, scFv-Fc 1 ug/ml
T3 chain: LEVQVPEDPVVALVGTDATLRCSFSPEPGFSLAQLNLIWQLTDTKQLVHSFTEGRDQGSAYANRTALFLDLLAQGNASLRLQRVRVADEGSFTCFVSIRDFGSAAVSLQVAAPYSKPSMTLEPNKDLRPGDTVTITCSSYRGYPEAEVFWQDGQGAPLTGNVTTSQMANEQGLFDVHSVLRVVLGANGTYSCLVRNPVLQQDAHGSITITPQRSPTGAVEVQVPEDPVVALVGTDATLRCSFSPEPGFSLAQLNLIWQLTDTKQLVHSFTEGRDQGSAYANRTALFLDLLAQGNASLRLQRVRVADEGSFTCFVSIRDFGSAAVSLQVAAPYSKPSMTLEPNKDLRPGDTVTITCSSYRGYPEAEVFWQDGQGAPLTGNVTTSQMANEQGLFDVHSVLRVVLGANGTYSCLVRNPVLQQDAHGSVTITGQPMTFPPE
Experimental: as §1

[5] = molecular target: T4, B7-H3 on B7-H3-expressing CHO cells (Genescript) (UniProt Q5ZPR3 29-534, limits assumed); assay: flow cytometry, B7-H3-expressing CHO cells, 10 ug/ml
T4 construct: whole, on cells; also called CHO-K1/B7-H3; MFI B7-H3
T4 sequence (looked up): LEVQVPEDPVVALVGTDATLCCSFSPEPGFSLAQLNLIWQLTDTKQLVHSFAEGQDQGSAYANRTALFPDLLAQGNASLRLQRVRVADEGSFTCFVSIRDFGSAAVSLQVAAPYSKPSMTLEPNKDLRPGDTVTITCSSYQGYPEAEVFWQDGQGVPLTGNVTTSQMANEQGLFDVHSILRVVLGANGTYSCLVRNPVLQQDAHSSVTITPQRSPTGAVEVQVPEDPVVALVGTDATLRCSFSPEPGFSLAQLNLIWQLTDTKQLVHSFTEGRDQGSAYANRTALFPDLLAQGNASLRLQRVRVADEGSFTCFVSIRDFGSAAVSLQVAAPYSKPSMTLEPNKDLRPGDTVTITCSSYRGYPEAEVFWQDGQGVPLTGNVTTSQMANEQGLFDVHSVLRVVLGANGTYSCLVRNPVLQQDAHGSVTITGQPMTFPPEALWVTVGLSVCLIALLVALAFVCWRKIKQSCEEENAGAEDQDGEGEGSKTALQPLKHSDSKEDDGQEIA
Experimental: Binding of anti-B7-H3 antibodies to cell lines was assessed by flow cytometry. Briefly, approximately 1.5 e5 B7-H3-expressing CHO cells (Genescript) or parent CHO cells (ATCC) were resuspended in FACS buffer (PBS/1% BSA/0.01% NaN3) containing 10 μg/ml of anti-B7-H3 antibodies and incubated for 60 min on ice. […] Cells were then washed twice, resuspended in FACS buffer, and read on an Attune Flow Cytometer (Life Technologies). Data are expressed as Mean Fluorescent Intensities (MFI).

| Binder | hu:mu ratio [1] | ELISA OD450 @ 1 ug/ml [2] | ELISA OD450 @ 1 ug/ml [3] | ELISA OD450 @ 1 ug/ml [4] | MFI @ 10 ug/ml [5] |
| --- | --- | --- | --- | --- | --- |
| 40633p1.1.E4 (scFv, V domains shown, Tested as scFv-Fc (Expi293 supernatant)) VH: EVQLLESGGGLVQPGGSLRLSCAASGFTFSSYWMSWVRQAPGKGLEWVSGISSSGSATYYADSVKGRFTISRDNSKNTLYLQMNSLRAEDTAVYYCARWNDYDIMDVWGQGTTVTVSS VL: not shown | 1.29 | 1.95 OD450 | 1.51 OD450 | 1.86 OD450 | 80000 MFI |
| 40633p1.1.C11 (scFv, V domains shown, Tested as scFv-Fc (Expi293 supernatant)) VH: EVQLLESGGGLVQPGGSLRLSCAASGFTFSSYWMSWVRQAPGKGLEWVAGINRNGGTTYYADSVKGRFTISRDNSKNTLYLQMNSLRAEDTAVYYCARWNDYDIMDVWGQGTTVTVSS VL: not shown | 1.13 | 2.09 OD450 | 1.85 OD450 | 1.65 OD450 | 81100 MFI |
| 40633p1.1.D11 (scFv, V domains shown, Tested as scFv-Fc (Expi293 supernatant)) VH: EVQLLESGGGLVQPGGSLRLSCAASGFTFRSYAMSWVRQAPGKGLEWVAYIGSSGGTTYYADSVKGRFTISRDNSKNTLYLQMNSLRAEDTAVYYCVKESYYYMDVWGQGTTVTVSS VL: QSVLTQPPSASGTPGQRVTISCSATISNIDINRVSWYQQLPGTAPKLLIFNSQRPSGVPDRFSGSKSGTSASLAISGLQSEDEADYYCATWDDSLNSWVFGGGTKLTVL | 1.18 | 1.72 OD450 | 1.45 OD450 | 1.91 OD450 | 78600 MFI |
| 40633p1.1.B3 (scFv, V domains shown, Tested as scFv-Fc (Expi293 supernatant)) VH: EVQLLESGGGLVQPGGSLRLSCAASGFTVSYYGMSWVRQAPGKGLEWVSAIKQDGSEKYYADSVKGRFTISRDNSKNTLYLQMNSLRAEDTAVYYCARHWNDYSNAMNVWGQGTTVTVSS VL: QSVLTQPPSASGTPGQRVTISCSGSTSNIGRESVYWYQQLPGTAPKLLIYTIDQRPSGVPDRFSGSKSGTSASLAISGLQSEDEADYYCGTWDDSLNAWVFGGGTKLTVL | 1.11 | 2.04 OD450 | 1.83 OD450 | 1.89 OD450 | 74700 MFI |
| 40633p1.1.E6 (scFv, V domains shown, Tested as scFv-Fc (Expi293 supernatant)) VH: EVQLLESGGGLVQPGGSLRLSCAASGLTFSSYAMNWVRQAPGKGLEWVAGIGGSGSSTYHTDSVKGRFTISRDNSKNTLYLQMSSLRAEDAAVYYCAKEDHWSGGMDVWGQGTTVTVSS VL: not shown | 2.44 | 1.39 OD450 | 0.572 OD450 | 1.53 OD450 | 43500 MFI |

More lines, now with the values ahead:

| hu:mu ratio [1] | ELISA OD450 @ 1 ug/ml [2] | ELISA OD450 @ 1 ug/ml [3] | ELISA OD450 @ 1 ug/ml [4] | MFI @ 10 ug/ml [5] | Binder |
| --- | --- | --- | --- | --- | --- |
| 1.45 | 2.19 OD450 | 1.51 OD450 | 1.92 OD450 | 75100 MFI | 40633p1.2.D7 (scFv, V domains shown, Tested as scFv-Fc (Expi293 supernatant)) VH: EVQLLESGGSLVQPGGSLRLSCAASGFTFSSYWMSWVRQAPGKGLEWVSGISSSGSATYYADSVKGRFTISRDNSKNTLYLQMNSLRAEDTAVYYCARWNDYDIMDVWGQGTTVTVSS VL: not shown |
| 1.13 | 2.08 OD450 | 1.85 OD450 | 2.41 OD450 | 67600 MFI | 40633p1.2.G9 (scFv, V domains shown, Tested as scFv-Fc (Expi293 supernatant)) VH: EVQLLESGGGLLQPGGSLRLSCAASGFSFSSYGMHWVRQAPGKGLEWVAAINSDGSRIYYADSVEGRFTISRDNSKNTLYLQMNSLRAEDTAVYYCTKYYYHYAMDVWGQGTTVTVSS VL: QSVLTQPPSASGTPGQRVTISCSGSRSDIGATTVNWYQQLPGTAPKLLIYQSHLRPSGVPDRFSGSKSGTSASLAISGLQSEDEADYYCASWDASLNTWVFGGGTKLTVL |
| 1.32 | 2.2 OD450 | 1.67 OD450 | 1.81 OD450 | 60100 MFI | 40633p1.1.G10 (scFv, V domains shown, Tested as scFv-Fc (Expi293 supernatant)) VH: EVQLLESGGGLVEPGGSLRLSCAASGFSFSSYGMHWVRQAPGKGLDWVAVINGEGSGTYYADSVKGRFTISRDNSKSTLYLQMNSLRAEDTAVYYCTKYYYNYAMDVWGQGTTVTVSS VL: QSVLTQPPSASGTPGQRVTISCSGSRTDIGTTSVNWYQQLPGTAPKLLIYQSHQRPSGVPDRFSGSKSGTSASLAISGLQSEDEADYYCASWDASQNTWVFGGGTKLTVL |
| 1.47 | 1.76 OD450 | 1.2 OD450 | 1.77 OD450 | 66800 MFI | 40633p1.1.F2 (scFv, V domains shown, Tested as scFv-Fc (Expi293 supernatant)) VH: EVQLLESGGGLVQPGGSLRLSCVASGLTFNGFAMTWVRQAPGKGLEWVSGISWNSGSIYYADSVKGRFTISRDNSKNTVYLQMSSLRAEDTAIYYCAKNWNDYYNSMDVWGQGTTVTVSS VL: QSVLTQPPSASGTPGQRVTISCSGSRSNIGTKYVYWYQQFPGTAPKLLIYTTDRRPSGVPDRFSGSKSGTSASLAISGLQSEDEADYYCSAWDDRLNAWVFGGGTKLTVL |
| 3.01 | 0.554 OD450 | 0.184 OD450 | 1.63 OD450 | 44000 MFI | 40633p1.1.E3 (scFv, V domains shown, Tested as scFv-Fc (Expi293 supernatant)) VH: EVQLLESGGGLVQPGGSLRLSCAASGFTVSYYGMSWVRQAPGKGLEWVSAIKQDGSEKYYADSVKGRFTISRDNSKNTLYLQMNSLRAEDTAVYYCARHWNDYSNAMNVWGQGTTVTVSS VL: not shown |
| 1.28 | 2.14 OD450 | 1.68 OD450 | 1.89 OD450 | 69900 MFI | 40633p1.1.G3 (scFv, V domains shown, Tested as scFv-Fc (Expi293 supernatant)) VH: EVQLLESGGGLVQPGGSLRLSCAASGLTFSSYAMNWVRQAPGKGLEWVAGIGGSGSSTYHTDSVKGRFTISRDNSKNTLYLQMNSLRAEDAAVYYCAKEDHWSGGMDVWGQGTTVTVSS VL: not shown |
